# From patent US10676527B2, “Methods and compositions for modulation of blood-neural barrier” (Ludwig Institute for Cancer Research Ltd, priority 2006, dated 2020)
# B1: tPA: wild type murine tissue-type plasminogen activator, serine protease thrombolytic agent (protein, UniProt P11214 33-559, looked up)
# Tissue-type plasminogen …: SYRATCRDEPTQTTYQQHQSWLRPMLRSSRVEYCRCNSGLVQCHSVPVRSCSEPRCFNGGTCQQALYFSDFVCQCPDGFVGKRCDIDTRATCFEEQGITYRGTWSTAESGAECINWNSSVLSLKPYNARRPNAIKLGLGNHNYCRNPDRDLKPWCYVFKAGKYTTEFCSTPACPKGKSEDCYVGKGVTYRGTHSLTTSQASCLPWNSIVLMGKSYTAWRTNSQALGLGRHNYCRNPDGDARPWCHVMKDRKLTWEYCDMSPCSTCGLRQYKRPQFRIKGGLYTDITSHPWQAAIFVKNKRSPGERFLCGGVLISSCWVLSAAHCFLERFPPNHLKVVLGRTYRVVPGEEEQTFEIEKYIVHEEFDDDTYDNDIALLQLRSQSKQCAQESSSVGTACLPDPNLQLPDWTECELSGYGKHEASSPFFSDRLKEAHVRLYPSSRCTSQHLFNKTVTNNMLCAGDTRSGGNQDLHDACQGDSGGPLVCMINKQMTLTGIISWGLGCGQKDVPGVYTKVTNYLDWIHDNMKQ
# B2: PDGF-BB: active platelet-derived growth factor BB dimer (from Preprotech Inc.) (protein, UniProt P01127 82-190, looked up)
# Platelet-derived growth …: SLGSLTIAEPAMIAECKTRTEVFEISRRLIDRTNANFLVWPPCVEVQRCSGCCNNRNVQCRPTQVQLRPVQVRKIEIVRKKPIFKKATVTLEDHLACKCETVAAARPVT
# Assays:
# cerebral vessels = assay: electron microscopy of cerebral vessels after intraventricular injection (edema); format: in vivo; conditions: mice, 2 μL at 1 μM intraventricular, 1 hour after injection, cortex
# Procedure: Electron microscopy of vessels in the brain from mice treated by intraventricular injection 1 hour prior to analysis. Panel A, PBS; panel B, tPA (2 μL at a concentration of a 1 μM); panels C and D PDGF-CC (3 μL at a concentration of a 1 μM). Panels B-D show arterioles surrounded by fluid-filled spaces indicative of developing edema. The approximate magnification is indicated on each panel.
# Specifically, tPA or active PDGF-CC (2 μL each at a concentration a 1 μM) were injected intraventricularly into mice, and morphological analysis of the cerebrovascular structure was performed. PBS was used as control. […] FIGS. 5B-D show arterioles surrounded by fluid-filled spaces indicative of developing edema. The approximate magnification is indicated on each panel.
# BBB = assay: Evans Blue extravasation (BBB opening) after intraventricular injection; format: in vivo; conditions: C57BL6 mice, 2 μl intraventricular, 3 μM, 1 hour after injection
# Procedure: (§1) Wild type C57BL6 mice (10 Week old) were injected intraventricularly into the dorsal third ventricle with 2 μl of PBS, active PDGF-AA, PDGF-BB (both from Preprotech Inc.) and PDGF-CC (see below) (3 μM). Evans Blue was given intravenously immediately after the injection. One hour after the injection, the animals were perfused with PBS and the brain tissue was removed and processed for Evans Blue extravasation.
# as §1, with “of either” for “of”, “PBS, wild type murine tPA (3 μM),” for “PBS,”, “active” for “active PDGF-AA, PDGF-BB (both from Preprotech Inc.) and”, “(3 μM), or wild type murine tPA (3 μM) plus active PDGF-CC” for “(see below)”
# Wt C57BL6 mice (10 Week old) were injected intraventricularly with 3 μl of either PBS, wild type murine tPA (3 μM), wild type murine tPA (3 μM) with rabbit anti-PDGF-CC (150 μg/ml). Evans Blue was given intravenously immediately after the injection. One hour after the injection, the animals were perfused with PBS and the brain tissue was removed and processed for Evans Blue extravasation.
Molecule,edema formation around cerebral vessels (transmission electron micrographs) (cerebral vessels),"opening of the BBB (Evans Blue extravasation) (BBB; Example 3, FIG. 3)","vascular permeability / opening of the BBB (Evans Blue extravasation) (BBB; Example 1, FIG. 1)"
B1,induce areas of fluid accumulation surrounding the vessels,potent inducers of opening of the BBB,–
B2,–,–,induce increased vascular permeability
